Tests used:
[1] = target: T1, TpoR-IL6ST chimeric receptor on HEK293T SIE-bla reporter cells (clone CR2-9) (human, UniProt P40238 26-527; P40189 651-918, limits assumed); test: cell-based or functional assay
T1 sequence (looked up): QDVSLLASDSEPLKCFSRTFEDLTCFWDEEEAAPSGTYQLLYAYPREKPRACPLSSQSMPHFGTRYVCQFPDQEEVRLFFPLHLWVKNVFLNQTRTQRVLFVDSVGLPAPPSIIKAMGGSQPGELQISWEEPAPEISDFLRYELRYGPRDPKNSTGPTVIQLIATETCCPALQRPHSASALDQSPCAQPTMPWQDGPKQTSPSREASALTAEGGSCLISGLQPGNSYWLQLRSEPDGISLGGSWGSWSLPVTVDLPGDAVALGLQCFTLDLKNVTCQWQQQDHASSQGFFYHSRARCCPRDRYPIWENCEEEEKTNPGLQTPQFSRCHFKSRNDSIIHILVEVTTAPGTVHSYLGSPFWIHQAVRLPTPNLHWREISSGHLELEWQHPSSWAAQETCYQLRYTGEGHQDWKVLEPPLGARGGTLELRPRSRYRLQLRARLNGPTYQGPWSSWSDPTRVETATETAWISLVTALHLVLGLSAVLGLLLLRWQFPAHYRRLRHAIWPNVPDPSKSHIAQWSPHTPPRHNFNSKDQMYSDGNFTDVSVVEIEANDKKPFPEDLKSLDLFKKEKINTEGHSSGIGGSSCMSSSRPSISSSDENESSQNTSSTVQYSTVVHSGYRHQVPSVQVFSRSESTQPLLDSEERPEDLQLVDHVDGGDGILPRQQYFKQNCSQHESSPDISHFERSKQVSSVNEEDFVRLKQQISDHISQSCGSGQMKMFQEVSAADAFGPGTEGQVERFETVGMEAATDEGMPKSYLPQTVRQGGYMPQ

[2] = target: T2, wild-type human TpoR on Ba/F3-hMpl cells (human, UniProt P40238 26-635); test: cell-based or functional assay
T2 sequence (looked up): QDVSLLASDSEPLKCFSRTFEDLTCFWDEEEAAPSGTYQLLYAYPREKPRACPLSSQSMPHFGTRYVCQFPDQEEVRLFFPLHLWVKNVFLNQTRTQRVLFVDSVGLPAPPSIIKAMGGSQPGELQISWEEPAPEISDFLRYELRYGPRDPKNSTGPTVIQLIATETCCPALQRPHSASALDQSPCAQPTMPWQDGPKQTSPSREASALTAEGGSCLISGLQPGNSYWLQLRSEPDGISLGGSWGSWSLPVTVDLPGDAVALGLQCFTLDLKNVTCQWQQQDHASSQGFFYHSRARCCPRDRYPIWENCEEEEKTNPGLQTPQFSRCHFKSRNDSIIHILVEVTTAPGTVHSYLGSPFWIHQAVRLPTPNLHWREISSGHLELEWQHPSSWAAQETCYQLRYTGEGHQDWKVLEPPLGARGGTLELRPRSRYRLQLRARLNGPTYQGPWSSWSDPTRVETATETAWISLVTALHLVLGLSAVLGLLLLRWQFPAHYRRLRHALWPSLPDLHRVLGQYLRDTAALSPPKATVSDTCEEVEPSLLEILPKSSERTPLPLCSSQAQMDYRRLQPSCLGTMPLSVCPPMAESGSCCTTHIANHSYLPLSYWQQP

[3] = target: T3, extracellular domain of hEpoR-his tag (human, UniProt P19235 25-250); test: pull-down: antibody mixed with hEpoR extracellular domain-his tag, captured on His-tag Dynabeads, bound antibody detected with anti-Fc:HRP (OD405nm); control is beads without EpoR
T3 construct: extracellular domain; also called EpoR ECD-his tag monomer protein; His-tagged monomeric EpoR; not shown: His tag
T3 sequence (looked up): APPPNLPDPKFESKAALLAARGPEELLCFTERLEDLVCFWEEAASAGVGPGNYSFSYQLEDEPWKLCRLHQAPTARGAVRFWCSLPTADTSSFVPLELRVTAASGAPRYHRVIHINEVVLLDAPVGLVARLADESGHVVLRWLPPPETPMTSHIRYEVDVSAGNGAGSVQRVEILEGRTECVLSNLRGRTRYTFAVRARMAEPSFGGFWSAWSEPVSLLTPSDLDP
Description: The single antibodies V-1 and V-3 and the bispecific antibody V-1/V-3 (BsAb) that were generated using “Knob-into-ole” technology were purified from HEK293F cells. (A) The purified proteins were analyzed using 7% Tris-Acetate gels with TA running buffer. (B) Antibody binding to the EpoR was tested by a “pull down” experiment. Different antibodies were mixed with the extracellular domain of hEpoR-his tag. The complexes were captured with His-tag Dynabeads and bound antibodies were detected with an anti-Fc:HRP antibody.

[4] = target: T3, extracellular domain of hEpoR-his tag; test: BLI (Octet Red), scFv-Fc captured on anti-human IgG sensors, EpoR ectodomain monomer titrated, 1:1 model; V-1; not competed by EPO
Description: (§1) Kinetic characterization using bio-layer interferometry (BLI). Experiments were performed using the Octet Red (Fortebio Inc.). The scFv Fc fusion proteins were captured with anti-Human IgG Capture (AHC) Biosensors (kinetics grade Cat# 18-5060). A titration series of the purified EpoR ectodomain monomer protein was measured against the immobilized scFv Fc in the association/dissociation cycle. The data set was fit to a 1:1 binding model to determine ka, kd and Kd.
(§2) Thus, both EPO and the bispecific antibody achieve the obligatory asymmetric binding to the EpoR that is necessary for full agonist activity, albeit in different ways. In the case of EPO, asymmetry is achieved by the use of two distinct interfaces (site 1 and site 2) that bind with different affinities to a single site in the homodimeric EpoR (Watowich, J. Invest. Med. 59:1067, 2011). By contrast, the heterodimeric bispecific antibody achieves asymmetry by using its two different binding specifies to interact with different sites on the EpoR (FIG. 6).

[5] = target: T3, extracellular domain of hEpoR-his tag; test: BLI (Octet Red), scFv-Fc captured on anti-human IgG sensors, EpoR ectodomain monomer titrated, 1:1 model; V-3; competed by EPO
Description: as §1, §2

B1: 3D9 TpoR agonist antibody (Fc fusion, not shown: a dimerising Fc or GST)
scFv: MAQVQLVQSGAEVRKVGSSVKVSCKASRDTFNTYGISWVRQAPGQGLEWMGGIIPIFGTADYAQKFRGRVTITADESTSTAYMELSSLRSEDTAVYYCARDRKLGGSDYWGQGTLVTVSSGGGGSGGGGSGGGGSDIVMTQSPSSVSASVGDKVTITCRASQGLGRWLAWYQQEPGKAPKLLIYAASTLQRGVPSRFSGSGSGTDFTLTISSLQPEDFATYYCQQSNSFPWTFGQGTKLEIKR
EC50, short-term fluorescence (FRET beta-lactamase) reporter assay [1]: ~0.01 nM
EC50, long-term proliferation assay (MTS) of Ba/F3-hMPL cells [2]: 0.005 nM

B2: heterodimeric bispecific antibody V-1/V-3 (bispecific antibody, V domains shown)
VH 1: MAQVQLVQSGAEVKKPGSSVKVSCKASGGTFSSYAISWVRQAPGQGLEWMGGIIPIFGTANYAQKFQGRVTITADESTSTAYMELSSLRSEDTAVYYCARDQGYYYGSGGLDYWGQGTLVTVSS
VL 1: DIQMTQSPSSLSASVGDRVTITCRASQSISSYLNWYQQKPGKAPKLLIYAASSLQSGVPSRFSGSGSGTDFTLTISSLQPEDFATYYCLQDYNYPLTFGGGTKVEIK
VH 2: MAQVQLVQSGAEVKKPGASVKVSCKASGYTFTSYGISWVRQAPGQGLEWMGWISAYNGNTNYAQKLQGRVTMTTDTSTSTAYMELRSLRSDDTAVYYCARGVAAALSYWGQGTLVTVSS
VL 2: QSALTQPASVSGSPGQSITISCTGTSSDVGAYNYVSWYQQHPGKAPKLMIYEVTKRPSGVPDRFSGSKSGNTASLTISGLQAEDEADYYCISFTASSTWAFGGGTKLTVLG
notes: Heterodimer of two scFv-Fc chains (human IgG1 Fc, hinge to CH3) made by knobs-into-hole engineering: T366Y in the CH3 of one monomer and Y407T in the other; also called BsAb; bispecific heterodimeric antibody
binding result [3]: binds

B3: EpoR antibody V-1 (scFv-Fc homodimer) (Fc fusion)
VH: B2 VH 1
VL: B2 VL 1
Kd [4]: 26 nM

B4: EpoR antibody V-3 (scFv-Fc homodimer) (Fc fusion)
VH: B2 VH 2
VL: B2 VL 2
Kd [5]: 45 nM
